From patent US10994019B2, “Bicyclic peptide-toxin conjugates specific for MT1-MMP” (BicycleRD Limited, priority 2016, dated 2021)
Starred links: 1 amine or outer side, 2 acyl side, 3 side chain; linkers in the order of their positions; H or OH if unused. Positions of bridges follow the written chain, without caps; N, C: chain ends. Non-standard residues stand in square brackets, D forms with d. Residues, ends and D or L forms follow the SMILES beside them. *: point of attachment. X1 = COc1cc2cc(c1Cl)N(C)C(=O)C[C@H](OC(=O)[C@H](C)N(C)C(=O)CCSSC(C)(C)CCC(=O)*)[C@]1(C)O[C@H]1[C@H](C)[C@@H]1C[C@@](O)(NC(=O)O1)[C@H](OC)/C=C/C=C(\C)C2; 1Nal = N[C@@H](Cc1cccc2ccccc12)C(=O)O; TBMB = c1c(C[*:1])cc(C[*:3])cc1C[*:2]; Tle = CC(C)(C)[C@H](N)C(=O)O; βAla = NCCC(=O)O; Sar = CNCC(=O)O

Legend:
[1] = system: MMP-1, MMP-2, MMP-15 and MMP-16; assay: Selectivity for MT1-MMP over other MMPs; type: binding
[2] = cited from earlier work; for reduction in sensitivity to a reducing agent such as dithiothreitol: in the antibody drug conjugate context; for Relative Stability to DTT (ADC): values relate to antibody drug conjugates containing the disulphide linker
[3] = Plasma stability profiling, Method #2 (quantitative LC-MS), rat plasma; type: in vitro ADME; details: incubation up to 24 hrs in plasma, 4 μM BDC, read-out: t1/2 (hrs) (rat plasma) (converted)
Experimental: (§1) To obtain plasma stability of bicyclic peptides quantitatively, peptide stock solutions (160 μM in DMSO) were mixed with plasma (human, rat or mouse), such that final concentrations were 4 μM, and incubated at 37° C. 40 μL samples were taken periodically up to 24 hrs and frozen at −80° C. Prior to LC-MS analysis, samples were defrosted, and mixed with 3 volumes (here, 120 μL) of 1 part water, 3 parts acetonitrile and 3 parts methanol. The milky suspensions were centrifuged for 40 min at 14000 rpm in a cooled centrifuge, and peptide-containing supernatants were quantitated for doubly/triply charged species and MS/MS fragments thereof using a Waters Xevo TQ-D instrument, while using a plasma extracted standard curve of the same peptides as a reference. The half-life of degradation in plasma was used to assess the comparative stability of the molecules.

[4] = Plasma stability profiling, Method #2 (quantitative LC-MS), human plasma; type: in vitro ADME; details: incubation up to 24 hrs in plasma, 4 μM BDC, read-out: t1/2 (hrs) (human plasma) (converted)
Experimental: as §1

EBC-1 xenograft tumours = assay: Efficacy in EBC-1 xenograft mice; type: in vivo, Balb/c nude mice
Experimental: (§2) Efficacy of BT17BDC-27 and BT17BDC-28 in EBC-1 Xenograft Mice.
(§3) Balb/c nude mice bearing subcutaneous EBC-1 xenograft tumours were treated with BDCs or vehicle. BDCs were dosed 3 times weekly for 2 weeks, dosing initiated when tumours measured approx. 150-200 mm^3. Mice were monitored, and measurements of tumour volume and body weight recorded 3 times a week.
Both BDCs were tested for their efficacies in in vivo mouse xenograft models, using the human lung squamous cell carcinoma line EBC-1.

[5] = Plasma stability profiling, Method #2 (quantitative LC-MS), mouse plasma; type: in vitro ADME; details: incubation up to 24 hrs in plasma, 4 μM BDC, read-out: t1/2 (hrs) (mouse plasma) (converted)
Experimental: as §1

[6] = Relative stability to DTT of Bicycle Drug Conjugates by quantitative LC-MS; type: physicochemical; details: compared to unhindered disulphide BDCs
Experimental: Both BDC conjugate structures were assessed for several in vitro parameters such as retention of potency to the human MT1-MMP hemopexin domain, stability in mouse, rat and human plasma, and stability to reducing agents such as dithiothreitol.

[7] = Body weight during treatment of EBC-1 xenograft mice; type: in vivo, Balb/c nude mice; details: 10 mg/kg
Experimental: FIG. 2: Body weight during treatment of EBC-1 xenograft mice with BT17BDC-27, which is indicative of drug-associated toxicology and overall animal health.
FIG. 4: Body weight during treatment of EBC-1 xenograft mice with BT17BDC-28, which is indicative of drug-associated toxicology and overall animal health.
as §2, §3

[8] = system: murine, dog, cynomolgus and human MT1-MMP; assay: Species cross-reactivity of peptide ligands; type: binding
[9] = 10 mg/kg, dosed 3 times weekly for 2 weeks

Compound | reduction in sensitivity to a reducing agent such as dithiothreitol [2] [fold] | Relative Stability to DTT (ADC) [2] | half-life at 4 μM [3] [h] | half-life at 4 μM [4] [h] | half-life at 4 μM [5] [h] | Relative Stability to DTT (BDC) [6] | body weight [7] | cross-reactivity with murine, dog, cynomolgus and human MT1-MMP [8] | also measured
-Ci-Y-N-E-F-G-Cii-E-D-F-Y-D-I-Ciii- [17-69-07] |  |  |  |  |  |  |  |  | selectivity for MT1-MMP (no cross-reaction with MMP-1, MMP-2, MMP-15 and MMP-16) [1]: uniquely selective for MT1-MMP
COc1cc2cc(c1Cl)N(C)C(=O)C[C@H](OC(=O)[C@H](C)N(C)C(=O)CCSSC(C)(C)CCC(=O)N[C@@H](C)C(=O)N[C@H]1CSCc3cc4cc(c3)CSC[C@H](NC(=O)[C@@H](C)NC(=O)[C@H](Cc3cccc5ccccc35)NC(=O)[C@H](CCC(=O)O)NC(=O)[C@H](CC(N)=O)NC(=O)[C@@H](C)NC1=O)C(=O)N[C@@H](CCC(=O)O)C(=O)N[C@@H](CC(=O)O)C(=O)N[C@@H](Cc1ccccc1)C(=O)N[C@@H](Cc1ccc(O)cc1)C(=O)N[C@@H](CC(=O)O)C(=O)N[C@@H](C(C)(C)C)C(=O)N[C@H](C(N)=O)CSC4)[C@]1(C)O[C@H]1[C@H](C)[C@@H]1C[C@@](O)(NC(=O)O1)[C@H](OC)/C=C/C=C(\C)C2 [BT17BDC-27] (X1-AC[dA]NE[1Nal][dA]CEDFYD[Tle]C-NH2; linker 2-8-15 via TBMB) | 14 | 14 | 9 | 36 | 23 | 32 | slight reduction in body weight |  | cleared tumours within (EBC-1 xenograft tumours; [9]): ≤ 14 days; efficacy and tolerability (EBC-1 xenograft tumours; doses equal or lower than 5 mg/kg): appreciable efficacy and tolerability
C[C@H](N)C(=O)N[C@H]1CSCc2cc3cc(c2)CSC[C@H](NC(=O)[C@@H](C)NC(=O)[C@H](Cc2cccc4ccccc24)NC(=O)[C@H](CCC(=O)O)NC(=O)[C@H](CC(N)=O)NC(=O)[C@@H](C)NC1=O)C(=O)N[C@@H](CCC(=O)O)C(=O)N[C@@H](CC(=O)O)C(=O)N[C@@H](Cc1ccccc1)C(=O)N[C@@H](Cc1ccc(O)cc1)C(=O)N[C@@H](CC(=O)O)C(=O)N[C@@H](C(C)(C)C)C(=O)N[C@H](C(N)=O)CSC3 [17-69-07-N268, A-(17-69-07) D-Ala1 1Nal4 D-Ala5 tBuGly11] (H-AC[dA]NE[1Nal][dA]CEDFYD[Tle]C-NH2; linker 2-8-15 via TBMB) |  |  |  |  |  |  |  | fully cross reactive | 
C[C@H](NC(=O)CN(C)C(=O)CN(C)C(=O)CN(C)C(=O)CN(C)C(=O)CN(C)C(=O)CN(C)C(=O)CN(C)C(=O)CN(C)C(=O)CN(C)C(=O)CN(C)C(=O)CCN)C(=O)N[C@H]1CSCc2cc3cc(c2)CSC[C@H](NC(=O)[C@@H](C)NC(=O)[C@H](Cc2cccc4ccccc24)NC(=O)[C@H](CCC(=O)O)NC(=O)[C@H](CC(N)=O)NC(=O)[C@@H](C)NC1=O)C(=O)N[C@@H](CCC(=O)O)C(=O)N[C@@H](CC(=O)O)C(=O)N[C@@H](Cc1ccccc1)C(=O)N[C@@H](Cc1ccc(O)cc1)C(=O)N[C@@H](CC(=O)O)C(=O)N[C@@H](C(C)(C)C)C(=O)N[C@H](C(N)=O)CSC3 [17-69-07-N241, bAla-Sar10-A-(17-69-07) D-Ala1 1Nal4 D-Ala5 tBuGly11] (H-[βAla][Sar][Sar][Sar][Sar][Sar][Sar][Sar][Sar][Sar][Sar]AC[dA]NE[1Nal][dA]CEDFYD[Tle]C-NH2; linker 13-19-26 via TBMB) |  |  |  |  |  |  |  | fully cross reactive | 
COc1cc2cc(c1Cl)N(C)C(=O)C[C@H](OC(=O)[C@H](C)N(C)C(=O)CCSSC(C)(C)CCC(=O)NCCC(=O)N(C)CC(=O)N(C)CC(=O)N(C)CC(=O)N(C)CC(=O)N(C)CC(=O)N(C)CC(=O)N(C)CC(=O)N(C)CC(=O)N(C)CC(=O)N(C)CC(=O)N[C@@H](C)C(=O)N[C@H]1CSCc3cc4cc(c3)CSC[C@H](NC(=O)[C@@H](C)NC(=O)[C@H](Cc3cccc5ccccc35)NC(=O)[C@H](CCC(=O)O)NC(=O)[C@H](CC(N)=O)NC(=O)[C@@H](C)NC1=O)C(=O)N[C@@H](CCC(=O)O)C(=O)N[C@@H](CC(=O)O)C(=O)N[C@@H](Cc1ccccc1)C(=O)N[C@@H](Cc1ccc(O)cc1)C(=O)N[C@@H](CC(=O)O)C(=O)N[C@@H](C(C)(C)C)C(=O)N[C@H](C(N)=O)CSC4)[C@]1(C)O[C@H]1[C@H](C)[C@@H]1C[C@@](O)(NC(=O)O1)[C@H](OC)/C=C/C=C(\C)C2 [BT17BDC-28] ({X1-βAla}-[Sar][Sar][Sar][Sar][Sar][Sar][Sar][Sar][Sar][Sar]AC[dA]NE[1Nal][dA]CEDFYD[Tle]C-NH2; linker 12-18-25 via TBMB) | 14 | 14 | 13 | 29 | 19 | 28 | no weight loss was observed |  | effect on tumour growth (EBC-1 xenograft tumours; [9]): tumour growth stasis but not active regression
